Laboratory results from patent US20020164762A1 (BASF AKTIENGESELLSCHAFT, published 2002).

Biological target: T1, N-His-tagged p20 subunit of human ICE (human, UniProt P29466 120-297)
T1 construct: Subunit released from N-His p30 by autoprocessing
T1 sequence: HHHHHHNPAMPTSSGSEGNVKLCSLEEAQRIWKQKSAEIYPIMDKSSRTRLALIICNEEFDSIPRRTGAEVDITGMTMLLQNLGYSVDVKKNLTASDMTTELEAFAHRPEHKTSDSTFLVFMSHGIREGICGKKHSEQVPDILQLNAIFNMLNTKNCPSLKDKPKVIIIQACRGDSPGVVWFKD
Assay: co-expression as N-His p30 in E. coli, nickel chelating column purification
Source text: ICE (WT or modified) with an N-terminal polyhistidine tag was expressed in E. coli and purified using methodology described in Kamens et al. (1995) J. Biol. Chem., 270:15250-15256. Briefly, a DNA fragment encoding amino acid residues 120 to 404 of wild-type or D381E-modified ICE (p30) was cloned into an expression vector such that the p30-encoding fragment was fused in-frame at its N-terminus to DNA encoding six histidine residues. Following expression, the p30 fragment is correctly processed to p20 and p10 subunits, which associate to form mature, active N-His-tagged ICE proteins. The N-His ICE fusion proteins then were purified on a nickel chelating column (Porath, J. (1992) Protein Expression and Purification 2:263-281).

B1: wild-type p10 subunit of human ICE (other)
chain: AIKKAHIEKDFIAFCSSTPDNVSWRHPTMGSVFIGRLIEHMQEYACSCDVEEIFRKVRFSFEQPDGRAQMPTTERVTLTRCFYLFPGH
notes: Subunit released from WT N-His p30 by autoprocessing; also called ICE 317-404
Question: Does B1 bind?
Answer: Result: binds

B2: D381E-modified p10 subunit of human ICE (other)
chain: AIKKAHIEKDFIAFCSSTPDNVSWRHPTMGSVFIGRLIEHMQEYACSCDVEEIFRKVRFSFEQPEGRAQMPTTERVTLTRCFYLFPGH
notes: Subunit released from D381E N-His p30 by autoprocessing; also called p10 D381E; ICE 317-404 D381E
Question: Does B2 bind?
Answer: Result: binds
